In data set [1] the target is T1, N protein (unphosphorylated, lambda-phosphatase treated) (SARS-CoV-2 (isolate Wuhan-Hu-1), UniProt P0DTC9 1-419). The experiment in a line: MST; apparent; Hill nH = 1.7 +/- 0.4. The settings on record: protein: recombinant; tags: His6-MBP tag cleaved (3C); linker remnant possible; chain copies: 2; stem loop.
Data set [2] has as its target cGAS (human, UniProt Q8N884 1-522).
Data set [3] deals with T1, N protein (unphosphorylated, …). Description: MST; apparent; Hill nH = 1.6 +/- 0.1. The following applies: protein: recombinant; tags: His6-MBP tag cleaved (3C); linker remnant possible; chain copies: 2; label: Cy5 at 5' end of forward strand; blunt.
Data set [4] has as its target biotin-AviTag-cGASCD (human, UniProt Q8N884 158-522). The experiment in a line: BLI; N protein first adds signal, then accelerates dissociation. The following applies: protein: recombinant; tags: AviTag, biotinylated; blunt.

Turning to GAUCUCUUGUAGAUCUGUUCUCUAAACGAACUUUAAAAUCUGUGUGGCUG (ssRNA) [50-nt RNA-Cy5], the Kd in data set [1] came to 3 ± 0.4 nM.

B1: 50-bp DNA-Cy5 (dsDNA)
DNA 1: GATCTCTTGTAGATCTGTTCTCTAAACGAACTTTAAAATCTGTGTGGCTG
DNA 2: CAGCCACACAGATTTTAAAGTTCGTTTAGAGAACAGATCTACAAGAGATC
Take B1: the binding result in data set [2] was “binds”. Moreover, in data set [3], the Kd is 6.3 ± 0.3 nM.

B2: 50-bp DNA (label-free) (dsDNA)
DNA 1: GATCTCTTGTAGATCTGTTCTCTAAACGAACTTTAAAATCTGTGTGGCTG
DNA 2: CAGCCACACAGATTTTAAAGTTCGTTTAGAGAACAGATCTACAAGAGATC
Regarding B2, the binding result in data set [2] is “binds”.

B3: 45-bp DNA (ISD) (dsDNA)
DNA 1: TACAGATCTACTAGTGATCTATGACTGATCTGTACATGATCTACA
DNA 2: TGTAGATCATGTACAGATCAGTCATAGATCACTAGTAGATCTGTA
As to B3, the binding result in data set [4] is given as “binds”.

The values above are taken from paper PMC12232725.
